In article doi:10.1101/2023.02.03.526950:

Columns and labels:
[1] = biological target: PXN/paxillin, exogenously expressed in HEK293T cells (human) (UniProt P49023); assay: cross-linking
[2] = biological target: recombinant PXN WT (human) (UniProt P49023); assay: SEC-MALS

stoichiometry N [1] | stoichiometry N [2] | Substance
2 | – | PXN/paxillin, exogenously expressed in HEK293T cells (from UniProt P49023-2 1-557) (natural protein)
– | 2 | recombinant PXN WT (from UniProt P49023-2 1-557) (natural protein)
